“And” between values parts separate entries of the source, which are not always exact repeats. Equal entries are not always repeated. “Also recorded” adds a separate entry of the source.
B1: iduronidase: recombinant human α-L-iduronidase, lysosomal hydrolase with mannose 6-phosphate marker (protein, UniProt P35475 28-653, looked up)
Alpha-L-iduronidase: APHLVHVDAARALWPLRRFWRSTGFCPPLPHSQADQYVLSWDQQLNLAYVGAVPHRGIKQVRTHWLLELVTTRGSTGRGLSYNFTHLDGYLDLLRENQLLPGFELMGSASGHFTDFEDKQQVFEWKDLVSSLARRYIGRYGLAHVSKWNFETWNEPDHHDFDNVSMTMQGFLNYYDACSEGLRAASPALRLGGPGDSFHTPPRSPLSWGLLRHCHDGTNFFTGEAGVRLDYISLHRKGARSSISILEQEKVVAQQIRQLFPKFADTPIYNDEADPLVGWSLPQPWRADVTYAAMVVKVIAQHQNLLLANTTSAFPYALLSNDNAFLSYHPHPFAQRTLTARFQVNNTRPPHVQLLRKPVLTAMGLLALLDEEQLWAEVSQAGTVLDSNHTVGVLASAHRPQGPADAWRAAVLIYASDDTRAHPNRSVAVTLRLRGVPPGPGLVYVTRYLDNGLCSPDGEWRRLGRPVFPTAEQFRRMRAAEDPVAAAPRPLPAGGRLTLRPALRLPSLLLVHVCARPEKPPGQVTRLRALPLTQGQLVLVWSDEHVGSKCLWTYEIQFSQDGKAYTPVSRKPSTFNLFVFSPDTGAVSGSYRVRALDYWARPGPFSDPVPYLEVPVPRGPPSPGNP
B2: dephospho iduronidase: recombinant iduronidase dephosphorylated by incubation with acid phosphatase bound to beads (protein, UniProt P35475 28-653, looked up)
Alpha-L-iduronidase: B1 Alpha-L-iduronidase
modifications: dephosphorylated
B3: ovalbumin: non-phosphorylated protein antigen with mannose terminated N-linked oligosaccharides (protein, UniProt P01012 2-386, looked up)
Ovalbumin: GSIGAASMEFCFDVFKELKVHHANENIFYCPIAIMSALAMVYLGAKDSTRTQINKVVRFDKLPGFGDSIEAQCGTSVNVHSSLRDILNQITKPNDVYSFSLASRLYAEERYPILPEYLQCVKELYRGGLEPINFQTAADQARELINSWVESQTNGIIRNVLQPSSVDSQTAMVLVNAIVFKGLWEKAFKDEDTQAMPFRVTEQESKPVQMMYQIGLFRVASMASEKMKILELPFASGTMSMLVLLPDEVSGLEQLESIINFEKLTEWTSSNVMEERKIKVYLPRMKMEEKYNLTSVLMAMGITDVFSSSANLSGISSAESLKISQAVHAAHAEINEAGREVVGSAEAGVDAASVSEEFRADHPFLFCIKHIATNAVLFFGRCVSP

Assays:
[1] = system: antibody titer to iduronidase; assay: ELISA antibody titer to iduronidase in canines on weekly iduronidase infusions, with or without tolerance regimens
Method: Normal and MPS I canines were obtained from the MPS I canine colony at Harbor-UCLA. The dogs are a cross between beagles and Plott hounds and average 12-20 kg in weight. The canines were under 2 years of age and at least 4 months of age for these experiments.
Enzyme Infusions. […] For toleragenic infusions, 14,000 U/kg/week α-L-iduronidase in 50 mL infusion in saline with 1 mg/mL canine albumin, and 10 mM NaPO4 was administered intravenously over 2 hours (1st hour 3,000 U/kg/hr; 2nd hour 11,000 U/kg/hr). Animals monitored for an anaphylactic reaction.
Canines were initiated on immunosuppressive drugs at day 0, equivalent to 18 days prior to the first enzyme challenge. If scheduled, the canines received monoclonal antibodies by intravenous infusion (2-5 mg) just prior to ITI. On day 4, the dogs received, if scheduled, an intrathymic injection of iduronidase at 1 mg/kg. Two weeks later, the dogs were begun on a weekly schedule of iduronidase enzyme infusions consisting of a weekly intravenous infusion of 14,000 U/kg (0.056 mg/kg/wk) of human recombinant iduronidase.
All canines received 0.056 mg/kg/week rh iduronidase intravenous challenges. Pre treatment ELISA values represent serum antibody levels prior to first antigen challenge with iduronidase.
Iduronidase was the same high uptake iduronidase as described above. The canines were challenged with 0.58 mg/kg of enzyme administered intravenously on a weekly basis for 3-6 doses.

[2] = system: Hurler fibroblasts; assay: Half maximal uptake (Kuptake) of iduronidase into Hurler fibroblasts; format: cell-based
Excerpt: It is especially preferred that the receptor has a Kuptake for the ligand of at least about 10^−6 M, usually at least about 10^−7 M more usually at least about 10^−8 M and preferably at least about 10^−9 M where Kuptake represents the concentration of ligand at which half maximal uptake occurs in a cell. Receptors of interest include the transferrin receptor, the melanotransferrin receptor, mannose 6-phosphate receptor, growth hormone receptor, and the like. Cognate ligands include: insulin-like growth factor II (IGF2), transferrin, growth hormone, insulin, and binding fragments thereof, particularly polypeptides having specific and high affinity receptors on diverse cell types. Single chain antibodies and binding agents from randomized phage display systems could be used if they have adequate affinity for the receptor. To determine the Kuptake of a ligand and receptor combination, methods known in the art may be used, for example see Kakkis et al. (1994) Protein Expr Purif 5(3):225-32 for assays used to determine the Kuptake of alpha-L-iduronidase. The disclosed methods are readily adapted to any ligand and receptor combination. Such assays are also useful in verifying the uptake of toleragens comprising exogenous high uptake moieties.
Enzyme Infusions. […] Animals monitored for an anaphylactic reaction. […]

[3] = system: IgA and IgE antibodies to iduronidase; assay: ELISA for IgG, IgA and IgE antibodies to iduronidase in canine sera; format: in vivo; details: before vs after 12 weekly infusions with iduronidase
Excerpt: The tolerance regimen in canine prevents the induction of IgG as manifested by a decrease in total IgG response against iduronidase as compared to the IgG response observed in non-tolerant canines. […] Analyses of the immune sera of canines that were either tolerant (dogs […] and SA) or canine controls (dogs RU and UM) that had not received the tolerizing regimen were studied for the presence of IgG, IgA and IgE antibodies to iduronidase.

[4] = dog, in vivo
Method: Canines were administered 14,000 U/kg/week α-L-iduronidase or higher dose as dose was ramped up, in a 50 mL infusion in saline containing 1 mg/mL canine albumin, 10 mM NaPO4, pH 5.8. Administered intravenously over 2 hours (1st hour 3,000 U/kg/hr; 2nd hour 11,000 U/kg/hr, or a higher rate in the 2nd hour depending on the dose). Animals were monitored for anaphylactic reaction.

[5] = system: ovalbumin; assay: Attempted induction of tolerance to ovalbumin; format: in vivo; details: ovalbumin with mannose terminated N-linked oligosaccharides
Excerpt: The titer in the tolerance dogs stayed low for several months and was studied in RO and SA for 6 months of weekly infusions (FIG. 2).

Molecule | mean antibody titer after 12 weekly infusions of rhIDU ([1]; ELISA, eight normal and MPS I canines vs eight control canines) | Antibody levels at week 15 ([1]; MPS I canines, iduronidase raised stepwise to 0.500 mg/kg/week at week 15) | titer on reexposure (anamnestic response) ([1]; canine Nitro, after nearly 6 months hiatus, 0.5 mg/kg/wk infusions) | further increase in antibody titer on higher therapeutic doses ([1]; immune responsive canines) | induction in antibody titer on rechallenge ([1]; non-tolerant canine RU, after 2 doses of enzyme following 4.5 month hiatus) | titers by week 14 of enzyme therapy ([1]; two MPS I canines previously treated with 0.5 mg/kg/wk, no tolerance regimen, 0.5 mg/kg) | mean antibody titer on higher therapeutic doses of iduronidase ([1]; up to 6 months, n=6 tolerant, n=2 immune responsive) | Kuptake (enzyme concentration at half maximal uptake) [2] | increase in IgA or IgE titer to iduronidase [3] | anaphylactic / anaphylactoid reaction during the infusion [4] | tolerance induction with this form of the toleragen ([1]; canines, applied with the tolerance regimen (CsA+Aza), listed as dephosphorylated rhIDU) | induction of tolerance to ovalbumin [5]
B1 | 149 OD units/μl serum | > 500 OD Units | ≥ 400 | 2-3 fold | > 20 fold | 1800 and 2000 | 369 OD/μl serum | about 1 nanomolar | ~10 fold | serious clinical anaphylactic reaction | – | –
B2 | – | – | – | – | – | – | – | too low to be calculated | – | – | did not allow induction of the tolerant state | –
B3 | – | – | – | – | – | – | – | – | – | – | – | did not succeed; also recorded: could not

— patent US7883707B2, “Induction of antigen specific immunnologic tolerance” (priority 2002, dated 2011)
